Source: PMC4467794 (Cell, 2015)

Biological target: T1, Mcx1^Y174A-3xFLAG (pore-1 loop Y174A), purified recombinant (S. cerevisiae, UniProt P38323 14-520, Y174A)
T1 sequence (looked up): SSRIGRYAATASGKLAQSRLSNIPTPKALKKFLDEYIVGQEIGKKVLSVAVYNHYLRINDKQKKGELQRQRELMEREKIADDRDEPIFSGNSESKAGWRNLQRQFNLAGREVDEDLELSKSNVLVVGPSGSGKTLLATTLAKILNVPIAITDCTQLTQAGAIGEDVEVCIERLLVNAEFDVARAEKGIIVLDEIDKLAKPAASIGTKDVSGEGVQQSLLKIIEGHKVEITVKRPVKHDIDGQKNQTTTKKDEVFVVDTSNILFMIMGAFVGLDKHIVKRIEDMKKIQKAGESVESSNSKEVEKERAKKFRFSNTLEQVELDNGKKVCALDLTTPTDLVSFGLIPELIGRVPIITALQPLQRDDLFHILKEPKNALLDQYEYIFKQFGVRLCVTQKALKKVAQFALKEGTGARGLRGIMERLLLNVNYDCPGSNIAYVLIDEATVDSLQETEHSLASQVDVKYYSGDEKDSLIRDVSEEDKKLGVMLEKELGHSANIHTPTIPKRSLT
Assay: co-IP

B1: apoHem1 (PLP-free Hem1, yeast ALA synthase), purified recombinant (enzyme)
chain: not shown
fold amount bound relative to holoHem1: ~10 fold
